According to the supplement of paper PMC10724198:
± gives the standard deviation of the averaged measurements.

These sequences were tested on Saccharomyces cerevisiae (assay: protein stability index of tFT-peptide fusion (C-terminal peptide) (PSI (0-1 scale)); higher = more stable (slower turnover)). Details: genetic background: das1 deletion; temperature: 30 C.
Description: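 MPS profiling in S. cerevisiae of the yeast C-terminome library: the last 12 aa of each annotated ORF are fused to the C-terminus of a sfGFP-mCherry timer, after a GGGS linker. Cells are FACS-sorted into 8 mCherry/sfGFP bins and deep-sequenced. PSI runs from 0 (unstable) to 1 (stable); wild type and das1Δ backgrounds, two technical replicates each.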

Sequence	protein stability index
EIAADDTKKQEK [SOK2 C-terminal 12 aa]	0.672 ± 0.027
EIIDNWEKYEQS [FAS1 C-terminal 12 aa]	0.706 ± 0.011
EIKHVFTGVYGG [ASP1 C-terminal 12 aa]	0.68 ± 0.006
EKHSFSTTQQVV [NRT1 C-terminal 12 aa]	0.666 ± 0.019
EKKKIFKGNKTD [YLR030W C-terminal 12 aa]	0.696 ± 0.036
EKMKKNQSIGWF [MRPL25 C-terminal 12 aa]	0.756 ± 0.02
EKSSVKRPCVKK [RKM4 C-terminal 12 aa]	0.674 ± 0.02
EKTVNFIKTFGV [GUT2 C-terminal 12 aa]	0.6956 ± 0.0026
ELKEGRTFLGRS [APQ13 C-terminal 12 aa]	0.703 ± 0.014
ELSDLENKLGKK [RCF1 C-terminal 12 aa]	0.6843 ± 0.0062
ELSNNLNVDEFV [LRS4 C-terminal 12 aa]	0.692 ± 0.0034
ELTDFKYPSNYE [PUT2 C-terminal 12 aa]	0.6787 ± 0.0024
EMRKRFFEKDLL [RAP1 C-terminal 12 aa]	0.696 ± 0.022
ENIEVILSNGRM [SNF12 C-terminal 12 aa]	0.676 ± 0.03
ENKLWNTEYFFC [ECM34 C-terminal 12 aa]	0.738 ± 0.018
ENLENKINNLSK [STF1 C-terminal 12 aa]	0.709 ± 0.025
ENNDNDDNDGLF [CTR9 C-terminal 12 aa]	0.707 ± 0.037
ENNEKFLNIRLY [CDC24 C-terminal 12 aa]	0.71 ± 0.026
ENVLNKEGVLQK [GIN4 C-terminal 12 aa]	0.682 ± 0.012
EPAYDGASVEQQ [THR1 C-terminal 12 aa]	0.688 ± 0.0074
EPEAEQAVEDTA [HSP30 C-terminal 12 aa]	0.685 ± 0.018

Sequence	protein stability index
EPRYNDDAQVSD [KCS1 C-terminal 12 aa]	0.684 ± 0.018
EREGGDEHDDMA [PWP1 C-terminal 12 aa]	0.684 ± 0.015
ERRLNAIINGEV [YTH1 C-terminal 12 aa]	0.689 ± 0.024
ESDHPTLADNSV [MRL1 C-terminal 12 aa]	0.6955 ± 0.0041
ESEKELYNATLA [NHP6A C-terminal 12 aa]	0.697 ± 0.011
ESGLQSINESTL [ALY2 C-terminal 12 aa]	0.7074 ± 0.0047
ESSAFEYPGGRL [BOI1 C-terminal 12 aa]	0.7086 ± 0.0049
ESTPKDAARSTN [ASF1 C-terminal 12 aa]	0.69 ± 0.025
ETNNVFQDAILR [DOC1 C-terminal 12 aa]	0.698 ± 0.013
ETPLLYNDTHTP [IES5 C-terminal 12 aa]	0.696 ± 0.042
ETYGSKIVYRFS [GAL10 C-terminal 12 aa]	0.692 ± 0.031
EVAKSLTLQYDV [CNB1 C-terminal 12 aa]	0.699 ± 0.0073
EVENDRQIHRML [IDI1 C-terminal 12 aa]	0.6924 ± 0.0013
EWSFASSGYKDD [PPN1 C-terminal 12 aa]	0.7115 ± 0.0032
FADKIKPTKVAE [MCK1 C-terminal 12 aa]	0.693 ± 0.015
FCAAYQGKKNNK [SLN1 C-terminal 12 aa]	0.696 ± 0.022
FDIKKANSATLA [TMA46 C-terminal 12 aa]	0.6584 ± 0.0037
FELVQPKGRRKH [TSR2 C-terminal 12 aa]	0.711 ± 0.016
FFLRSAAVYQPF [YPR197C C-terminal 12 aa]	0.6949 ± 0.003
FFNISVSTKISF [YER175W-A C-terminal 12 aa]	0.6797 ± 0.00033
FFSRVKSFKDPG [HRT3 C-terminal 12 aa]	0.7153 ± 0.0048

Sequence	protein stability index
FHPLFYCSALVF [YIL142C-A C-terminal 12 aa]	0.256 ± 0.016
FIEMSLASSFAG [MBR1 C-terminal 12 aa]	0.713 ± 0.009
FILELKNICKCT [MOH1 C-terminal 12 aa]	0.703 ± 0.026
FINCSSKYNGLQ [YBR224W C-terminal 12 aa]	0.687 ± 0.0088
FKMCPFFISWFL [YBL073W C-terminal 12 aa]	0.6013 ± 0.0016
FLDKNKKEQSDS [ECM9 C-terminal 12 aa]	0.678 ± 0.029
FLLTASRGIAQF [YBR116C C-terminal 12 aa]	0.6752 ± 0.0048
FPCAGSAMGSLT [YMR103C C-terminal 12 aa]	0.703 ± 0.011
FPQLNGLLRLQH [YPR014C C-terminal 12 aa]	0.698 ± 0.015
FQPLLKKNQVGY [THI3 C-terminal 12 aa]	0.704 ± 0.028
FSLLSFISYFLL [YPS6 C-terminal 12 aa]	0.665 ± 0.053
FSMLANRITIGL [YJL175W C-terminal 12 aa]	0.657 ± 0.016
FSSFKFLDTSYL [CKI1 C-terminal 12 aa]	0.748 ± 0.0096
FTPSYIPEPVLL [YOR161W-B C-terminal 12 aa]	0.671 ± 0.012
FVAEAYLDEFVY [ARC19 C-terminal 12 aa]	0.71 ± 0.03
FVKTIADTLSFS [PRR1 C-terminal 12 aa]	0.6997 ± 0.0036
FVLPTWAAKELN [SPE3 C-terminal 12 aa]	0.7195 ± 0.0063
FYVCYQLYHLVF [DPM1 C-terminal 12 aa]	0.355 ± 0.012
GALREVIKLQKQ [SLX9 C-terminal 12 aa]	0.704 ± 0.035

Same assay, conditions: genetic background: wild type; temperature: 30 C

Sequence	protein stability index
EIAADDTKKQEK [SOK2 C-terminal 12 aa]	0.684 ± 0.074
EIIDNWEKYEQS [FAS1 C-terminal 12 aa]	0.7 ± 0.04
EIKHVFTGVYGG [ASP1 C-terminal 12 aa]	0.686 ± 0.0042
EKHSFSTTQQVV [NRT1 C-terminal 12 aa]	0.664 ± 0.028
EKKKIFKGNKTD [YLR030W C-terminal 12 aa]	0.669 ± 0.012
EKMKKNQSIGWF [MRPL25 C-terminal 12 aa]	0.73159 ± 0.00064
EKSSVKRPCVKK [RKM4 C-terminal 12 aa]	0.701 ± 0.0034
EKTVNFIKTFGV [GUT2 C-terminal 12 aa]	0.71 ± 0.035
ELKEGRTFLGRS [APQ13 C-terminal 12 aa]	0.695 ± 0.028
ELSDLENKLGKK [RCF1 C-terminal 12 aa]	0.6991 ± 0.0033
ELSNNLNVDEFV [LRS4 C-terminal 12 aa]	0.687 ± 0.034
ELTDFKYPSNYE [PUT2 C-terminal 12 aa]	0.711 ± 0.066
EMRKRFFEKDLL [RAP1 C-terminal 12 aa]	0.723 ± 0.059
ENIEVILSNGRM [SNF12 C-terminal 12 aa]	0.689 ± 0.037
ENKLWNTEYFFC [ECM34 C-terminal 12 aa]	0.6655 ± 0.0018
ENLENKINNLSK [STF1 C-terminal 12 aa]	0.698 ± 0.034
ENNDNDDNDGLF [CTR9 C-terminal 12 aa]	0.701 ± 0.048
ENNEKFLNIRLY [CDC24 C-terminal 12 aa]	0.668 ± 0.013
ENVLNKEGVLQK [GIN4 C-terminal 12 aa]	0.734 ± 0.047
EPAYDGASVEQQ [THR1 C-terminal 12 aa]	0.6724 ± 0.0055
EPEAEQAVEDTA [HSP30 C-terminal 12 aa]	0.6594 ± 0.0041

Sequence	protein stability index
EPRYNDDAQVSD [KCS1 C-terminal 12 aa]	0.663 ± 0.064
EREGGDEHDDMA [PWP1 C-terminal 12 aa]	0.708 ± 0.035
ERRLNAIINGEV [YTH1 C-terminal 12 aa]	0.685 ± 0.034
ESDHPTLADNSV [MRL1 C-terminal 12 aa]	0.6912 ± 0.00095
ESEKELYNATLA [NHP6A C-terminal 12 aa]	0.718 ± 0.0079
ESGLQSINESTL [ALY2 C-terminal 12 aa]	0.706 ± 0.05
ESSAFEYPGGRL [BOI1 C-terminal 12 aa]	0.69 ± 0.0096
ESTPKDAARSTN [ASF1 C-terminal 12 aa]	0.705 ± 0.028
ETNNVFQDAILR [DOC1 C-terminal 12 aa]	0.683 ± 0.017
ETPLLYNDTHTP [IES5 C-terminal 12 aa]	0.695 ± 0.009
ETYGSKIVYRFS [GAL10 C-terminal 12 aa]	0.7035 ± 0.0018
EVAKSLTLQYDV [CNB1 C-terminal 12 aa]	0.68 ± 0.015
EVENDRQIHRML [IDI1 C-terminal 12 aa]	0.682 ± 0.01
EWSFASSGYKDD [PPN1 C-terminal 12 aa]	0.794 ± 0.041
FADKIKPTKVAE [MCK1 C-terminal 12 aa]	0.691 ± 0.023
FCAAYQGKKNNK [SLN1 C-terminal 12 aa]	0.659 ± 0.039
FDIKKANSATLA [TMA46 C-terminal 12 aa]	0.634 ± 0.019
FELVQPKGRRKH [TSR2 C-terminal 12 aa]	0.686 ± 0.058
FFLRSAAVYQPF [YPR197C C-terminal 12 aa]	0.6815 ± 0.0047
FFNISVSTKISF [YER175W-A C-terminal 12 aa]	0.659 ± 0.04
FFSRVKSFKDPG [HRT3 C-terminal 12 aa]	0.688 ± 0.022

Sequence	protein stability index
FHPLFYCSALVF [YIL142C-A C-terminal 12 aa]	0.277 ± 0.015
FIEMSLASSFAG [MBR1 C-terminal 12 aa]	0.704 ± 0.028
FILELKNICKCT [MOH1 C-terminal 12 aa]	0.525 ± 0.046
FINCSSKYNGLQ [YBR224W C-terminal 12 aa]	0.703 ± 0.019
FKMCPFFISWFL [YBL073W C-terminal 12 aa]	0.563 ± 0.032
FLDKNKKEQSDS [ECM9 C-terminal 12 aa]	0.771 ± 0.08
FLLTASRGIAQF [YBR116C C-terminal 12 aa]	0.74 ± 0.088
FPCAGSAMGSLT [YMR103C C-terminal 12 aa]	0.684 ± 0.01
FPQLNGLLRLQH [YPR014C C-terminal 12 aa]	0.681 ± 0.028
FQPLLKKNQVGY [THI3 C-terminal 12 aa]	0.693 ± 0.012
FSLLSFISYFLL [YPS6 C-terminal 12 aa]	0.379 ± 0.011
FSMLANRITIGL [YJL175W C-terminal 12 aa]	0.64 ± 0.014
FSSFKFLDTSYL [CKI1 C-terminal 12 aa]	0.697 ± 0.048
FTPSYIPEPVLL [YOR161W-B C-terminal 12 aa]	0.654 ± 0.013
FVAEAYLDEFVY [ARC19 C-terminal 12 aa]	0.662 ± 0.02
FVKTIADTLSFS [PRR1 C-terminal 12 aa]	0.7061 ± 0.0011
FVLPTWAAKELN [SPE3 C-terminal 12 aa]	0.69 ± 0.03
FYVCYQLYHLVF [DPM1 C-terminal 12 aa]	0.347 ± 0.022
GALREVIKLQKQ [SLX9 C-terminal 12 aa]	0.656 ± 0.0067
